Test results taken from article PMC12703733, “Probing Guanidino Pendant or Bridged Groups in Cyclic Antimicrobial Peptides Derived from Temporin L: A Strategy to Improve Efficacy against Gram-Negative Bacteria” (Journal of Medicinal Chemistry, 2025).
Bridge positions count the residues as written; N and C are the ends. Square brackets hold non-standard residues; d marks the D form. Ends that are not written are not given here. Phe(4-guanidino) = N=C(N)Nc1ccc(C[C@H](N)C(=O)O)cc1

B1: peptide 6 (cyclic Temporin L analogue with a guanidino pendant on the para position of Phe1) (peptide, UniProt P57104 1-13, looked up)
peptide: [Phe(4-guanidino)]VPWFKKF[dL][dE]RIL-NH2
modifications: lactam 6-10; N-terminus assumed
SMILES: CC[C@H](C)[C@H](NC(=O)[C@H](CCCNC(=N)N)NC(=O)[C@H]1CCC(=O)NCCCC[C@H](NC(=O)[C@H](Cc2ccccc2)NC(=O)[C@H](Cc2c[nH]c3ccccc23)NC(=O)[C@@H]2CCCN2C(=O)[C@@H](NC(=O)[C@@H](N)Cc2ccc(NC(=N)N)cc2)C(C)C)C(=O)N[C@@H](CCCCN)C(=O)N[C@@H](Cc2ccccc2)C(=O)N[C@H](CC(C)C)C(=O)N1)C(=O)N[C@@H](CC(C)C)C(N)=O
notes: peptide 6 is peptide 2 with (p-guanidino)Phe in place of Phe1; also called compound 6; source: synthetic peptide (Fmoc-based US-SPPS, RP-HPLC purified, >97%)
B2: peptide 7 (cyclic Temporin L analogue with a guanidino pendant at position 4 of the Pro3 ring) (peptide, UniProt P57104 1-13, looked up)
peptide: FV[Pro(4-guanidino)]WFKKF[dL][dE]RIL-NH2
modifications: lactam 6-10
notes: peptide 7 is peptide 2 with (4-guanidino)Pro in place of Pro3; also called compound 7; source: synthetic peptide (Fmoc-based US-SPPS, RP-HPLC purified, >97%)
B3: peptide 2 (cyclic Temporin L analogue; TLcyc with D-Glu at position 10) (peptide, UniProt P57104 1-13, looked up)
peptide: FVPWFKKF[dL][dE]RIL-NH2
modifications: lactam 6-10
notes: peptide 2 is the [Pro3,DLeu9]TL frame cyclised between positions 6 (Lys) and 10 (D-Glu); Free N-terminal amine; also called compound 2; source: synthetic peptide (Fmoc-based US-SPPS, RP-HPLC purified, >97%)

Key:
[1] = background value; cited from earlier work
[2] = target: the molecule itself; experiment: Thioflavin T fluorescence; LUVs of DOPE:DOPG:CL (65:23:12, mol/mol/mol) mimicking the Gram-negative membrane, 100 uM lipid, titrated with 5-50 uM peptide; 100 mM NaCl, 10 mM Tris-HCl, 25 uM ThT, pH 7.4; peptide oligomerisation within the vesicles

Molecule | pK a [1] | % aggregation at P/L 0.5 [2]
NCCCC[C@H](N)C(=O)O [lysine] | 10.94 | –
B1 | – | ~40%
B2 | – | ~60%
B3 | – | ~60%
